Reference: paper PMC5600424, “An efficient method for the preparation of preferentially heterodimerized recombinant S100A8/A9 coexpressed in Escherichia coli” (Biochemistry and Biophysics Reports, 2016)
One block for each binder: values may come before it.

Columns and labels:
Assay in all cases: SEC; SEC-HPLC (COSMOSIL 5Diol-300-II), 50 mM sodium phosphate buffer pH 6.0, 1.0 mL/min, 30 ug of cation-exchange peak fraction injected; mass estimated with a gel filtration calibration kit
[1] = biological target: T1, human S100A9 (human), P06702; settings: remark: other sources report otherwise
T1 chain: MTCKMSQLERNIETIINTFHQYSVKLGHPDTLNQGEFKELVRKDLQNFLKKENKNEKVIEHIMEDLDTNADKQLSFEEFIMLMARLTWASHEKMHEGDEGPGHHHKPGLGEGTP

[2] = biological target: the molecule itself
human S100A9 = biological target: T2, human S100A9 (human, UniProt P06702 1-114); settings: both partners purified
T2 construct: human S100A9, UniProt P06702; codon-optimised synthetic gene in pET21a (NdeI/BamHI), expressed without any tags; also called MRP-14
T2 sequence (looked up): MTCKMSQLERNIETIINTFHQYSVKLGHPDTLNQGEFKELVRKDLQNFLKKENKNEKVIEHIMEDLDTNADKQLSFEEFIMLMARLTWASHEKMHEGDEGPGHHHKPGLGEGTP

stoichiometry N [1]: 2
B1: human S100A9, P06702 1-114 (natural protein)
chain: MTCKMSQLERNIETIINTFHQYSVKLGHPDTLNQGEFKELVRKDLQNFLKKENKNEKVIEHIMEDLDTNADKQLSFEEFIMLMARLTWASHEKMHEGDEGPGHHHKPGLGEGTP

B2: S100A8/A9 heterodimer (complex, human)
chain 1: MLTELEKALNSIIDVYHKYSLIKGNFHAVYRDDLKKLLETECPQYIRKKGADVWFKELDINTDGAVNFQEFLILVIKMGVAAHKKSHEESHKE
chain 2: MTCKMSQLERNIETIINTFHQYSVKLGHPDTLNQGEFKELVRKDLQNFLKKENKNEKVIEHIMEDLDTNADKQLSFEEFIMLMARLTWASHEKMHEGDEGPGHHHKPGLGEGTP
notes: human S100A8, UniProt P05109; as the chain of m1; no tags; human S100A9, UniProt P06702; as the chain of m2; Heterodimer formed during coexpression; used here only for its own association to a higher complex; also called MRP-8/14; calprotectin; source: E. coli T7 Express, coexpressed from pET21-S100A8-S100A9, purified (cation-exchange chromatography, Peak 1)
binding result [2]: binds

binding result (human S100A9): binds
B3: human S100A8 (natural protein, UniProt P05109 1-93, looked up)
chain: MLTELEKALNSIIDVYHKYSLIKGNFHAVYRDDLKKLLETECPQYIRKKGADVWFKELDINTDGAVNFQEFLILVIKMGVAAHKKSHEESHKE
notes: human S100A8, UniProt P05109; codon-optimised synthetic gene in pET21a (NdeI/BamHI), expressed without any tags; also called MRP-8
stoichiometry N [2]: 2
